Source: patent US20040151715A1 (SCHERING, published 2004)
Numbering of substitutions follows the chain as printed. In names and notes the source's numbering stands.

Columns and labels:
[1] = target: T1, human ADAM33 catalytic domain (human, UniProt Q9BZ11 204-409); test: HPLC assay of KL-1 peptide (100 µM) cleavage by ADAM33cat (80 nM), TIMP pre-incubated 1 h at RT; competitive inhibition fit
T1 construct: Expressed in Drosophila S2 cells as pre/pro/cat with a C-terminal Ser-Gly-His6 tag and processed at RGRR203/EARR; also called CAT domain; protease domain
T1 sequence: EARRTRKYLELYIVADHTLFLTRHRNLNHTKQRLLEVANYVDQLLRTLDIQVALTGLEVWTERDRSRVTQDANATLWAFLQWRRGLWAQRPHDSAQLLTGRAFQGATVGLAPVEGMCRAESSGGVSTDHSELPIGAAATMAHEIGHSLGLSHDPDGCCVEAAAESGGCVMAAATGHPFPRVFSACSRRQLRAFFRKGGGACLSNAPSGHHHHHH
Description: (§1) The inhibition dissociation constants (Kᵢ) for inhibitors were determined as follows: an HPLC assay was performed in the presence or absence of inhibitors for 2 h at RT using ADAM33cat (80 nM) and KL-1 peptide substrate (100 μM). For testing tissue inhibitor of metalloproteinases (TIMPs), ADAM33 and human TIMPs were pre-incubated for 1 h at RT. Serial dilutions of TIMPs or synthetic inhibitors were tested starting at 4 μM (TIMP-2, -3, 4), 2 μM (TIMP-1, IK682), 20 μM (Marimastat), or 200 μM (Immunex compound 1: N-{DL-[2-(hydroxyamino-carbonyl)methyl]4-methylpentanoyl}-L-3-(tertbutyl)glycyl-L-alanine,2-aminoethylamide). Initial velocities were calculated by dividing cleaved product over reaction time. The initial velocities were plotted as a function of inhibitor concentration. For tight binding inhibitors (IK682, TIMP-3), the apparent inhibitor dissociation constants (Kᵢ app values) were calculated by fitting the curve to the following modified Morrison's equation: […]
(§2) The cleavage of the KL-1 peptide by ADAM33 was used to evaluate the effect of different classes of protease inhibitors. Inhibition constants of several hydroxamate compounds, known to inhibit either ADAM17 [IK682, and the Immunex compound 1] or MMPs [Marimastat], were determined. […] Human TIMP-1, -2, -3 and -4, endogenous inhibitors of MMPs and ADAMs, were tested for inhibition of ADAM33 activity.

[2] = target: T2, MCF substrate peptide (Ac-LPPVAASSLNRD-NH2)
T2 chain: LPPVAASSLNRD

[3] = target: T1, human ADAM33 catalytic domain; test: HPLC assay of KL-1 peptide (100 µM) cleavage by ADAM33cat (80 nM), TIMP pre-incubated 1 h at RT; Morrison tight-binding fit (Ki app)
Description: as §1, §2

[4] = target: T1, human ADAM33 catalytic domain; test: co-purification during chromatography; heterodimer not disrupted by APMA and/or detergents
[5] = target: T3, human ADAM33 pro domain (wild type)
T3 chain: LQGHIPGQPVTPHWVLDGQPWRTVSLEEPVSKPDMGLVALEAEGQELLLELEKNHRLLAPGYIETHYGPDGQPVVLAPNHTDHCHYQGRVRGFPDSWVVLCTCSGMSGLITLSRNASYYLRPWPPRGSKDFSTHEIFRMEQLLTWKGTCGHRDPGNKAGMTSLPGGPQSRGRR

[6] = target: T4, KL-1 peptide (PPVAASSLRN)
T4 chain: PPVAASSLRN

[7] = target: T5, TRANCE peptide (VGSQHIRAEK)
T5 chain: VGSQHIRAEK

APP peptide (YEVHHQKLVF) = target: T6, APP peptide (YEVHHQKLVF)
T6 chain: YEVHHQKLVF

[8] = target: T7, insulin B chain peptide (HLVEALYLVC)
T7 chain: HLVEALYLVC

B1: human TIMP-4 (tissue inhibitor of metalloproteinases 4) (other, UniProt Q99727 30-224, looked up)
chain: CSCAPAHPQQHICHSALVIRAKISSEKVVPASADPADTEKMLRYEIKQIKMFKGFEKVKDVQYIYTPFDSSLCGVKLEANSQKQYLLTGQVLSDGKVFIHLCNYIEPWEDLSLVQRESLNHHYHLNCGCQITTCYTVPCTISAPNECLWTDWLLERKLYGYQAQHYVCMKHVDGTCSWYRGHLPLRKEFVDIVQP
Ki [1]: 223 nM

B2: single chain zymogen form of ADAM33 (R203T/R207S) (protein)
chain: LQGHIPGQPVTPHWVLDGQPWRTVSLEEPVSKPDMGLVALEAEGQELLLELEKNHRLLAPGYIETHYGPDGQPVVLAPNHTDHCHYQGRVRGFPDSWVVLCTCSGMSGLITLSRNASYYLRPWPPRGSKDFSTHEIFRMEQLLTWKGTCGHRDPGNKAGMTSLPGGPQSRGRTEARSTRKYLELYIVADHTLFLTRHRNLNHTKQRLLEVANYVDQLLRTLDIQVALTGLEVWTERDRSRVTQDANATLWAFLQWRRGLWAQRPHDSAQLLTGRAFQGATVGLAPVEGMCRAESSGGVSTDHSELPIGAAATMAHEIGHSLGLSHDPDGCCVEAAAESGGCVMAAATGHPFPRVFSACSRRQLRAFFRKGGGACLSNAP
catalytic efficiency on the MCF peptide [2]: showed no significant difference to that of the CAT domain

B3: human TIMP-3 (tissue inhibitor of metalloproteinases 3) (other, UniProt P35625 24-211, looked up)
chain: CTCSPSHPQDAFCNSDIVIRAKVVGKKLVKEGPFGTLVYTIKQMKMYRGFTKMPHVQYIHTEASESLCGLKLEVNKYQYLLTGRVYDGKMYTGLCNFVERWDQLTLSQRKGLNYRYHLGCNCKIKSCYYLPCFVTSKNECLWTDMLSNFGYPGYQSKHYACIRQKGGYCSWYRGWAPPDKSIINATDP
Ki [3]: 64 nM

B4: human ADAM33 pro domain C131A (other)
chain: T3 chain with C101A
notes: The whole pro/cat entry is named; The protein was processed at the pro-CAT junction, so only the part before EARR is the pro domain
percent of protease domain associated with the pro domain [4]: > 80%

B5: human ADAM33 pro domain C131A/C179A (other)
chain: T3 chain with C101A, C149A
notes: as for B4
percent of protease domain associated with the pro domain [4]: > 80%

B6: human ADAM33 pro domain C179A (other)
chain: T3 chain with C149A
notes: as for B4
percent of protease domain associated with the pro domain [4]: > 80%

B7: human ADAM33 catalytic domain (protein)
chain: T1 sequence
Km [2]: suggesting a Km value greater than the highest tested concentration (500 µM) | catalytic efficiency (kcat/Km) [2]: 2.6±0.5)×10^2 M^-1 s^-1 | peptide cleavage (HPLC) [2]: The wild-type ADAM33 cleaved the peptide between the residues corresponding to Ala-190 and Ser-191 | catalytic efficiency of the pro/CAT complex on the MCF peptide, tested at 50 nM-1 µM [5]: comparable to that of the CAT domain | Km [6]: 3000 ± 100 µM | kcat [6]: 0.7 ± 0.1 s⁻¹ | kcat/Km [6]: (2.6±0.5)×10^2 M^-1 s^-1 (n=3) | peptide cleavage (HPLC; site by MALDI-TOF MS) [6]: ADAM33 cleaved the ... KL-1 peptide at A * S | peptide cleavage (HPLC; site by MALDI-TOF MS) [7]: ADAM33 cleaved the ... human TRANCE peptide at H * I | Km (APP peptide (YEVHHQKLVF)): 1000 ± 100 µM | kcat (APP peptide (YEVHHQKLVF)): 0.2 ± 0.1 s⁻¹ | kcat/Km (APP peptide (YEVHHQKLVF)): (1.6±0.3)×10^2 M^-1 s^-1 (n=2) | peptide cleavage (HPLC; site by MALDI-TOF MS) (APP peptide (YEVHHQKLVF)): ADAM33 cleaved the APP peptide at H * Q | peptide cleavage (HPLC; site by MALDI-TOF MS) [8]: ADAM33 cleaved the ... insulin B chain peptide at A * L
